{"source": "patent US20080274954", "target": "Cdc42 (SEQ ID NO: 12) expressed as an N-terminal 3x FLAG-tagged protein"}
{"protein": "sh04009DH/PH protein (SEQ ID NO: 6) with FLAG-tag (3x) at the C-terminal (protein) MEELSENSSSTPSEEQDEEASQSRHRHCENKQQMRTNVIREIMDTERVYIKHLRDICEGYIRQCRKHTGMFTVAQLATIFGNIEDIYKFQRKFLKDLEKQYNKEEPHLSEIGSCFLQNQEGFAIYSEYCNNHPGACLELANLMKQGKYRHFFEACRLLQQMIDIAIDGFLLTPVQKICKYPLQLAELLKYTTQEHGDYSNIKAAYEAMKNVACLINERKRKLESIDKIARWQVSIVGWEGLDILDRSSELIHSGELTKITKQGKSQQRTFFLFDHQLVSCKKDLLRRDMLYYKGRLDMDEMELVDLGDGRDKDCNLSVKNAFKLVSRTTDEVYLFCAKKQEDKARWLQACADERRRVQEDKEMGMEISENQKKLAMLNAQKAGHGKSKGYNRCPVAPPHQGLHPIHQRHITMPTSVPQQQVFGLAEPKRKSSLFWHTFNRLTPFRK", "values": [{"measurement": "effector pull-down assay: amount of active (GTP-bound) Cdc42 bound to the PAK-1 effector bead, Western blot with anti-FLAG antibody", "result": "In the cell lysate (lane 4 in FIG. 2) prepared from the cells in which the sh04009DH/PH protein was co-expressed with Cdc42, the band was detected more strongly that in the cell lysate (lane 2 in FIG. 2) prepared from the cells in which only Cdc42 was expressed"}]}
